Data from the supplement of paper PMC10724198.
± gives the standard deviation of the averaged measurements.

system: Saccharomyces cerevisiae; experiment: protein stability index of tFT-peptide fusion (C-terminal peptide) (PSI (0-1 scale)); higher = more stable (slower turnover); settings: genetic background: wild type; temperature: 30 C
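Also: PSI is a weighted mean of sequencing reads over stability bins, variants kept only with over 10 reads, mCherry proximal and sfGFP distal, peptide attached via GGGS linker.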

Q: Which protein stability index does the source give for TWGRPGGDHPRE here?
A: Its protein stability index is 0.708 ± 0.0096.

Q: For TWRRAVSERPYP, which protein stability index is on record?
A: Its protein stability index is 0.725 ± 0.1.

Q: For TWRRGSKPHVRS, which protein stability index is on record?
A: Its protein stability index is 0.724 ± 0.044.

Q: Which protein stability index does the source give for TYKKAKIRKKYI here?
A: Its protein stability index is 0.6237 ± 0.0045.

Q: With TYLGISNLHPAI as the sequence, how does the protein stability index read?
A: The protein stability index was 0.709 ± 0.031.

Q: How did the protein stability index turn out when TYLSAWQFCVAS was run?
A: The protein stability index was 0.579 ± 0.049.

Q: For TYRPEMYSRVLT, which protein stability index is on record?
A: The protein stability index was 0.738 ± 0.011.

Q: For TYRYWGTLRYYD, which protein stability index is on record?
A: Its protein stability index is 0.761 ± 0.07.

Q: TYVPRYPPPLFP was tested. Which protein stability index did it give?
A: Its protein stability index is 0.72 ± 0.061.

Q: Which protein stability index does the source give for VAACVSLFCGAL here?
A: Its protein stability index is 0.719 ± 0.074.

Q: For VAAEGCGAALSR, which protein stability index is on record?
A: The protein stability index was 0.627 ± 0.0099.

Q: VAESCVIVFWLG was tested. Which protein stability index did it give?
A: The protein stability index was 0.506 ± 0.0056.

Q: How did the protein stability index turn out when VAGGGGGCLVDC was run?
A: Its protein stability index is 0.646 ± 0.022.

Q: VAGKVWREAEPG was tested. Which protein stability index did it give?
A: Its protein stability index is 0.656 ± 0.029.

Q: VAGSQYTAGGDV was tested. Which protein stability index did it give?
A: Its protein stability index is 0.635 ± 0.044.

Q: VALSSECVLSGV was tested. Which protein stability index did it give?
A: Its protein stability index is 0.656 ± 0.025.

Q: How did the protein stability index turn out when VARLCVPSGPGH was run?
A: The protein stability index was 0.721 ± 0.0096.

Q: For VASLSGGQISFG, which protein stability index is on record?
A: The protein stability index was 0.612 ± 0.029.

Q: For VASTSLPDIRGV, which protein stability index is on record?
A: Its protein stability index is 0.631 ± 0.07.

Q: With VASWNSDKTKND as the sequence, how does the protein stability index read?
A: The protein stability index was 0.752 ± 0.12.

Q: Which protein stability index does the source give for VAVGIEGGWWGV here?
A: The protein stability index was 0.78 ± 0.042.

Q: VAYRGGGGWRIS was tested. Which protein stability index did it give?
A: The protein stability index was 0.6865 ± 0.005.

Q: Which protein stability index does the source give for VAYSKWIGEIRD here?
A: Its protein stability index is 0.71 ± 0.038.

Q: For VAYYFVRNIIGE, which protein stability index is on record?
A: The protein stability index was 0.667 ± 0.056.

Q: VCAVAQPCRVQL was tested. Which protein stability index did it give?
A: The protein stability index was 0.683 ± 0.025.

Q: Which protein stability index does the source give for VCCDRWWFAFWE here?
A: Its protein stability index is 0.7241 ± 0.0012.

Q: For VCGPCVESLETR, which protein stability index is on record?
A: Its protein stability index is 0.689 ± 0.059.

Q: With VCGVSWSRFPVL as the sequence, how does the protein stability index read?
A: Its protein stability index is 0.716 ± 0.0099.

Q: How did the protein stability index turn out when VCILPVTCAGMF was run?
A: The protein stability index was 0.6224 ± 0.0012.

Q: How did the protein stability index turn out when VCLFWGVSAGCK was run?
A: Its protein stability index is 0.65 ± 0.04.

Q: Which protein stability index does the source give for VCLGGWCMWGWR here?
A: The protein stability index was 0.585 ± 0.017.

Q: For VCNLIRILSLVI, which protein stability index is on record?
A: Its protein stability index is 0.496 ± 0.031.

Q: Which protein stability index does the source give for VCVCCMGCGLGV here?
A: The protein stability index was 0.68773 ± 5.6e-05.

Q: Which protein stability index does the source give for VCVGCAACIVGV here?
A: Its protein stability index is 0.636 ± 0.026.

Q: How did the protein stability index turn out when VCVVGGSILRAV was run?
A: Its protein stability index is 0.711 ± 0.048.

Q: With VCWLTCCGQLIA as the sequence, how does the protein stability index read?
A: The protein stability index was 0.514 ± 0.0068.

Q: With VCWVRGGGVLDG as the sequence, how does the protein stability index read?
A: Its protein stability index is 0.711 ± 0.053.

Q: How did the protein stability index turn out when VCYGELTISNLE was run?
A: The protein stability index was 0.654 ± 0.045.

Q: With VDCTCLPKRTYE as the sequence, how does the protein stability index read?
A: The protein stability index was 0.643 ± 0.1.

Q: VDGLRASRFVGS was tested. Which protein stability index did it give?
A: The protein stability index was 0.7 ± 0.048.

Q: With VDHIKAHSDSEE as the sequence, how does the protein stability index read?
A: The protein stability index was 0.756 ± 0.1.

Q: VDKLVRCISVSI was tested. Which protein stability index did it give?
A: Its protein stability index is 0.5428 ± 0.0013.

Q: For VDLLFLMVGTSV, which protein stability index is on record?
A: The protein stability index was 0.574 ± 0.011.

Q: For VDRLDAACCIFC, which protein stability index is on record?
A: The protein stability index was 0.601 ± 0.031.

Q: Which protein stability index does the source give for VDVSVLVGLNFV here?
A: Its protein stability index is 0.797 ± 0.056.

Q: For VECEARTVEKAN, which protein stability index is on record?
A: The protein stability index was 0.63072 ± 0.00022.

Q: How did the protein stability index turn out when VECGVAGSLDLA was run?
A: Its protein stability index is 0.713 ± 0.014.

Q: VEEYKKRNNKEG was tested. Which protein stability index did it give?
A: Its protein stability index is 0.64 ± 0.01.

Q: With VEHQVNMGDGEM as the sequence, how does the protein stability index read?
A: Its protein stability index is 0.63525 ± 3.1e-05.

Q: For VEYSVVDKRLLY, which protein stability index is on record?
A: The protein stability index was 0.651 ± 0.065.

Q: With VEYVRSGTLVSG as the sequence, how does the protein stability index read?
A: Its protein stability index is 0.658 ± 0.06.

Q: VFFSCVRFCLWF was tested. Which protein stability index did it give?
A: The protein stability index was 0.562 ± 0.0082.

Q: VFLISPSSFSPP was tested. Which protein stability index did it give?
A: Its protein stability index is 0.738 ± 0.033.

Q: Which protein stability index does the source give for VFLNRGSHQQET here?
A: Its protein stability index is 0.691 ± 0.056.

Q: For VFLQRIDDKSPY, which protein stability index is on record?
A: Its protein stability index is 0.712 ± 0.046.

Q: VFLRSGCSGWGE was tested. Which protein stability index did it give?
A: Its protein stability index is 0.827 ± 0.094.

Q: For VFLRSPSRAPSL, which protein stability index is on record?
A: Its protein stability index is 0.72 ± 0.078.

Q: VFMPVGVGGGSC was tested. Which protein stability index did it give?
A: Its protein stability index is 0.678 ± 0.05.

Q: With VFPLSLLLTSFL as the sequence, how does the protein stability index read?
A: The protein stability index was 0.591 ± 0.047.

Q: For VFPSLCITSVCT, which protein stability index is on record?
A: Its protein stability index is 0.53 ± 0.02.

Q: With VFPVGSGLWRVF as the sequence, how does the protein stability index read?
A: Its protein stability index is 0.63 ± 0.016.

Q: For VFRFAPILHSHR, which protein stability index is on record?
A: Its protein stability index is 0.585 ± 0.019.

Q: VFSCPLLFASFS was tested. Which protein stability index did it give?
A: Its protein stability index is 0.672 ± 0.041.

Q: VFSPVLVCKMGE was tested. Which protein stability index did it give?
A: Its protein stability index is 0.698 ± 0.024.

Q: With VFTCTGVLFGGM as the sequence, how does the protein stability index read?
A: The protein stability index was 0.768 ± 0.12.

Q: Which protein stability index does the source give for VFTSPPPLPSPP here?
A: Its protein stability index is 0.728 ± 0.029.

Q: Which protein stability index does the source give for VGADVLAYRGVA here?
A: The protein stability index was 0.604 ± 0.025.

Q: VGASRAGGEVSR was tested. Which protein stability index did it give?
A: The protein stability index was 0.651 ± 0.013.

Q: VGCACGYGGCGL was tested. Which protein stability index did it give?
A: Its protein stability index is 0.682 ± 0.058.

Q: For VGCEGGRRGVGG, which protein stability index is on record?
A: Its protein stability index is 0.65 ± 0.059.

Q: How did the protein stability index turn out when VGCSDFSAIVLD was run?
A: Its protein stability index is 0.713 ± 0.069.

Q: VGCSSHAFGSSV was tested. Which protein stability index did it give?
A: Its protein stability index is 0.686 ± 0.053.

Q: With VGCSVGHFQRLF as the sequence, how does the protein stability index read?
A: The protein stability index was 0.677 ± 0.017.

Q: For VGDGQGGGGQGG, which protein stability index is on record?
A: Its protein stability index is 0.661 ± 0.022.

Q: How did the protein stability index turn out when VGDGQGWGGQGG was run?
A: Its protein stability index is 0.688 ± 0.0075.

Q: VGDRCDECGFWA was tested. Which protein stability index did it give?
A: Its protein stability index is 0.699 ± 0.0043.

Q: For VGFLGFFVVEGV, which protein stability index is on record?
A: The protein stability index was 0.545 ± 0.033.

Q: Which protein stability index does the source give for VGGGGGAEGAGW here?
A: The protein stability index was 0.739 ± 0.12.

Q: VGGGGGGGWWHW was tested. Which protein stability index did it give?
A: The protein stability index was 0.805 ± 0.011.

Q: With VGGGGLGVEAWG as the sequence, how does the protein stability index read?
A: The protein stability index was 0.613 ± 0.059.

Q: For VGGGGVGAGVWG, which protein stability index is on record?
A: The protein stability index was 0.653 ± 0.086.

Q: How did the protein stability index turn out when VGGGPAALGMWI was run?
A: Its protein stability index is 0.689 ± 0.077.

Q: VGGGVGVPGVLG was tested. Which protein stability index did it give?
A: The protein stability index was 0.672 ± 0.012.

Q: Which protein stability index does the source give for VGGIVGGFCRGR here?
A: Its protein stability index is 0.701 ± 0.069.

Q: Which protein stability index does the source give for VGGPRVLVRGVY here?
A: Its protein stability index is 0.6754 ± 0.0055.

Q: Which protein stability index does the source give for VGGRVESLGVGD here?
A: Its protein stability index is 0.584 ± 0.017.

Q: VGGVGGLWVGAV was tested. Which protein stability index did it give?
A: Its protein stability index is 0.7143 ± 0.0018.

Q: For VGGVWAGGGCSF, which protein stability index is on record?
A: Its protein stability index is 0.651 ± 0.12.

Q: With VGGWGWLPLPWC as the sequence, how does the protein stability index read?
A: Its protein stability index is 0.678 ± 0.13.

Q: For VGGWWAREVVEL, which protein stability index is on record?
A: Its protein stability index is 0.753 ± 0.0085.

Q: For VGHCSEGTFYPG, which protein stability index is on record?
A: Its protein stability index is 0.65 ± 0.12.

Q: VGICWLTEPVLY was tested. Which protein stability index did it give?
A: The protein stability index was 0.731 ± 0.089.

Q: How did the protein stability index turn out when VGKFGGAGGICQ was run?
A: Its protein stability index is 0.685 ± 0.013.

Q: With VGKIRWIGFGGW as the sequence, how does the protein stability index read?
A: Its protein stability index is 0.695 ± 0.051.

Q: With VGLGGTGGESRY as the sequence, how does the protein stability index read?
A: The protein stability index was 0.706 ± 0.027.

Q: For VGLGMREWLGVE, which protein stability index is on record?
A: Its protein stability index is 0.758 ± 0.026.

Q: VGNPHKRGWRAR was tested. Which protein stability index did it give?
A: Its protein stability index is 0.60903 ± 0.00027.

Q: For VGPFRISRSFTG, which protein stability index is on record?
A: The protein stability index was 0.7174 ± 0.004.

Q: With VGQGVPEGGGQW as the sequence, how does the protein stability index read?
A: The protein stability index was 0.726 ± 0.018.

Q: How did the protein stability index turn out when VGRGEEAHTPRR was run?
A: The protein stability index was 0.678 ± 0.013.

Q: Which protein stability index does the source give for VGRGGGVSLGGR here?
A: Its protein stability index is 0.671 ± 0.082.
